Measurements reported in patent publication US10772972B2, “Anti-STEAP2 antibody drug conjugates, and compositions and uses thereof” (Regeneron Pharmaceuticals, Inc., priority 2016, dated 2020).

B1: CD3-VH-G: anti-CD3 antibody engineered from CD3-VH-P to contain only germline frameworks, HCVR SEQ ID NO: 1730 (antibody, V domains shown)
VH: EVQLVESGGGLVQPGRSLRLSCAASGFTFDDYSMHWVRQAPGKGLEWVSGISWNSGSKGYADSVKGRFTISRDNAKNSLYLQMNSLRAEDTALYYCAKYGSGYGKFYHYGLDVWGQGTTVTVSS
VL: DIQMTQSPSSLSASVGDSVTITCRASQSINNYLNWYQQKPGKAPKLLIYTASSLLSGVPSRFSGSGSGTDFTLTISGLHPEDFATYFCQQSFSTPPITFGQGTRLDIK
B2: BSSTEAP2/CD3-010: STEAP2×CD3 bispecific: anti-STEAP2 H1H7809N (SEQ 330), anti-CD3 H1H7198P (SEQ 1466), common LCVR of H1H7809N (antibody, V domains shown)
VH 1: QVQLVESGGGVVQPGRSLGLSCAASGFTFSSYGMHWVRQAPGKGLEWVAVIWYDGSNKYYVDSVKGRFTISRDNSKNTLYLQMNSLRAEDTAVYYCAREGLRFLENYYYYYGMDVWGQGTTVTVSS
VH 2: EVQLVESGGGLVQPGRSLRLSCAASGFTFADYTMHWVRQVPGKGLEWVSDISWNSGSKDYADSVKGRFTISRDNAKNFLYLQMNSLRAEDTALYYCVKYGSGYGKFYFYAMDVWGQGTTVTVSS
VL: EIVLTQSPGTLSLSPGERATLSCRASQSISSTYLAWYQQRPGQAPRLLIYGASSRATGIPDRFSGSGSGTDFTLTISRLEPEDFAVYYCQQYGTSPYTFGQGTKLEIK

How the values were obtained:
human CD3 (Jurkat cells) = assay: FACS titration of anti-CD3 antibodies on Jurkat cells; format: binding; conditions: anti-CD3 antibody
Text: See, e.g. FACS binding experiments outlined in Example 12 and in PCT/US2016/044732 filed Jul. 29, 2016.

[1] = test system: Jurkat cells (express human CD3); assay: FACS binding titration of STEAP2xCD3 bispecifics on Jurkat cells; conditions: 66.6 nM to 0.001 nM, 30 minutes at 4° C.
Protocol: (§1) FACS Binding Titration on Jurkat Cells, PC3_STEAP2/1 Cells and cynomolgus T Cells: Flow cytometric analysis was utilized to determine binding of STEAP2×CD3 bispecific antibodies to Jurkat, PC3_STEAP2/1 chimeric and cynomolgus T cells, followed by detection with a phycoerythrin (PE)-labeled anti-human IgG antibody. Briefly, 2×10^5 cells/well were incubated for 30 minutes at 4° C. with a serial dilution of STEAP2×CD3 bispecific antibodies or control antibody (a human IgG1 antibody that binds a feline antigen with no cross-reactivity to STEAP2 or human or cynomolgus CD3) ranging from 66.6 nM to 0.001 nM. After incubation, the cells were washed twice with cold PBS containing 1% filtered FBS and a PE-conjugated anti-human secondary antibody was added to the cells and incubated for an additional 30 minutes. Wells containing no antibody or secondary antibody only were used as a control. After incubation, cells were washed, re-suspended in 200 μL cold PBS containing 1% filtered FBS and analyzed by flow cytometry on a BD FACS Canto II.

cynomolgus T cells = assay: FACS binding titration of STEAP2xCD3 bispecifics on cynomolgus T cells; conditions: 66.6 nM to 0.001 nM, 30 minutes at 4° C.
[2] = test system: PC3_STEAP2/1 cells (PC3 engineered to express a STEAP2/1 chimeric construct); assay: FACS binding titration of STEAP2xCD3 bispecifics on PC3_STEAP2/1 cells; set-up: species or system human; conditions: 66.6 nM to 0.001 nM, 30 minutes at 4° C.
Protocol: as §1

human PBMCs = assay: T cell proliferation assay, human PBMC; format: cell-based; conditions: with anti-CD28 200 ng/mL, 72 hours; read-out: hPBMC Proliferation [M] (EC50)
Protocol: Thawed human or freshly isolated monkey PBMCs (50,000 cells/well) were incubated with 3-fold (human, concentration range: 5E-10M to 2.82E-15M; cynomolgus, concentration range: 1E-09M to 4.57E-13M) serial dilutions of STEAP2×CD3 bispecifics or isotype control in complete medium (RPMI supplemented with 10% FBS, 100 U/mL penicillin, 100 μg/mL streptomycin, 292 μg/mL L-glutamine) and a fixed concentration (human: 200 ng/mL, cyno: 500 ng/mL) of a commercial anti-CD28 antibody (Biolegend, Catalog #302914) in white flat bottom 96-well plates for 72 hours at 37° C. Isolated monkey PBMCs were from two donors (identified as mk8781M or mk9381M). Following incubation, CellTiter Glo® (Promega, Cat #7573) was added and luminescence, as readout for cell viability, was measured using a VICTOR X5 multi-label plate reader. Cell titer was calculated by dividing the luminescence of stimulated cells by the baseline luminescence of unstimulated cells.
All αSTEAP2×αCD3 bispecific antibodies induce human PBMC proliferation in the presence of a co-stimulatory anti-CD28 antibody (See Table 20 and FIG. 9). PBMCs were incubated with a serial dilution of bispecific antibodies or the control antibody and a fixed concentration of anti-CD28 for 72 hours, and cell viability was measured in a luminescence assay to detect live cells. […]

Molecule	EC50, FACS titration of Jurkat cells (human CD3) (human CD3 (Jurkat cells))	EC50 [1]	Cynomolgus T cells EC50 [M] (cynomolgus T cells)	FACS PC3_STEAP2/1 EC50 [M] [2]	EC50 (human PBMCs)
B1	retained their binding affinity				
B2		13.6 nM	Very Weak	No Binding	6.55e-12 M
